First the molecules themselves.
B1: LINE1-mini (parent)
chain: GGCAGAGCUCAACACAGCGUGGCAAAGUGGCUGUGGCUAGACUGCC

The values below come from the RNAGym collection of RNA variant scans (doi:10.7554/elife.90254).

In this data set the parent is B1. As to the kind of experiment: self-cleavage, relative activity (ratio to wild type); higher = more cleavage; in vitro, sequencing; the parent is a self-cleaving ribozyme.
Turning to C10A G44C, the self-cleavage worked out at 0.07.

With C10A G44U, the self-cleavage was determined as 0.03.

Consider C10A G44A, for which the self-cleavage is 0.07.

In the case of U9C U43G, the self-cleavage was 0.01.

Take U9C U43A: the self-cleavage is 0.03.

On to U9C U43C, for which the self-cleavage turned out to be 0.02.

For the variant C10A C13G, the self-cleavage amounted to 0.03.

On to C10A C13A, for which the self-cleavage amounted to 0.03.

As for C10A C13U, the self-cleavage is 0.04.

In the case of U9C G27A, the self-cleavage was determined as 0.03.

U9C G27C: the self-cleavage came out at 0.03.

On to U9C G27U, for which the self-cleavage came to 0.04.

For the variant U9G C23A, the self-cleavage came to 0.11.

U9G C23G: the self-cleavage worked out at 0.15.

For the variant U9G C23U, the self-cleavage came to 0.07.

On to U9G A11G, for which the self-cleavage is 0.02.

With U9G A11C, the self-cleavage came to 0.02.

Turning to U9G A11U, the self-cleavage was 0.03.

Consider U9G C45U, for which the self-cleavage was determined as 0.16.

As to U9G C45G, the self-cleavage came to 0.21.

On to U9G C45A, for which the self-cleavage is 0.11.

Consider C10G A12C, for which the self-cleavage was 0.03.

As to U9G G29C, the self-cleavage worked out at 0.05.

As to U9G G29A, the self-cleavage stood at 0.08.

Consider U9G G29U, for which the self-cleavage was 0.07.

C10A U38A: the self-cleavage was 0.15.

Consider C10A U38G, for which the self-cleavage amounted to 0.05.

In the case of C10A U38C, the self-cleavage was determined as 0.16.

For C10A C42U, the self-cleavage is 0.03.

For the variant C10A C42G, the self-cleavage came to 0.16.

In the case of C10A C42A, the self-cleavage came to 0.02.

Consider U9G C31A, for which the self-cleavage stood at 0.04.

For U9G C31G, the self-cleavage came to 0.04.

For U9G C31U, the self-cleavage was 0.03.

Turning to U9G A26C, the self-cleavage was 0.21.

As to U9G A26G, the self-cleavage is 0.04.

On to U9G A26U, for which the self-cleavage came to 0.15.

Turning to U9G C46U, the self-cleavage worked out at 0.11.

Consider U9G C46G, for which the self-cleavage stood at 0.05.

U9G C46A: the self-cleavage worked out at 0.1.

Consider U9C C10U, for which the self-cleavage was 0.04.

Consider U9C C10G, for which the self-cleavage came out at 0.03.

In the case of U9C C10A, the self-cleavage came out at 0.03.

On to U9C G19U, for which the self-cleavage stood at 0.08.

As for U9C G19C, the self-cleavage stood at 0.05.

In the case of U9C G19A, the self-cleavage is 0.04.

Regarding U9C U28G, the self-cleavage stood at 0.04.

For the variant U9C U28C, the self-cleavage was found to be 0.05.

Turning to U9C U28A, the self-cleavage is 0.03.

Consider U9C U34G, for which the self-cleavage came out at 0.03.

For U9C U34A, the self-cleavage came out at 0.04.

With U9C U34C, the self-cleavage was 0.04.

In the case of U9G C10U, the self-cleavage came out at 0.05.

In the case of U9G C10G, the self-cleavage was determined as 0.02.

Turning to U9G C10A, the self-cleavage came out at 0.03.

Take C10A G22A: the self-cleavage came to 0.05.

For the variant C10A G22C, the self-cleavage came to 0.03.

On to C10A G22U, for which the self-cleavage came to 0.07.

As to C10A C46G, the self-cleavage was determined as 0.04.

With C10A C46A, the self-cleavage was determined as 0.05.

As to C10A C46U, the self-cleavage worked out at 0.07.

As to U9G G19A, the self-cleavage was 0.18.

As to U9G G19U, the self-cleavage stood at 0.1.

Regarding U9G G19C, the self-cleavage was 0.06.

C10A G29C: the self-cleavage was 0.04.

Turning to C10A G29A, the self-cleavage was 0.06.

Regarding C10A G29U, the self-cleavage was determined as 0.04.

Turning to U9G A24U, the self-cleavage stood at 0.18.

With U9G A24G, the self-cleavage came to 0.14.

As to U9G A24C, the self-cleavage is 0.07.

U9C C46U: the self-cleavage turned out to be 0.03.

Take U9C C46A: the self-cleavage came to 0.03.

In the case of U9C C46G, the self-cleavage stood at 0.03.

With C10A A14C, the self-cleavage stood at 0.02.

C10A A14U: the self-cleavage came to 0.05.

Consider C10A A14G, for which the self-cleavage was 0.06.

For the variant C10A G35C, the self-cleavage was 0.02.

For C10A G35A, the self-cleavage is 0.04.

For C10A G35U, the self-cleavage amounted to 0.03.

Consider U9G G30U, for which the self-cleavage is 0.1.

On to U9G G30A, for which the self-cleavage was 0.09.

With U9G G30C, the self-cleavage is 0.06.

Take C10A A25G: the self-cleavage came out at 0.04.

Turning to C10A A25U, the self-cleavage came to 0.1.

Consider C10A A25C, for which the self-cleavage worked out at 0.05.

With U9C A25C, the self-cleavage was determined as 0.03.

U9C A25G: the self-cleavage is 0.04.

As to U9C A25U, the self-cleavage stood at 0.04.

As for U9C C31U, the self-cleavage came out at 0.03.

With U9C C31G, the self-cleavage was determined as 0.02.

Consider U9C C31A, for which the self-cleavage worked out at 0.02.

For U9G G27A, the self-cleavage was found to be 0.07.

As to U9G G27U, the self-cleavage was 0.06.

With U9G G27C, the self-cleavage is 0.08.

With U9C G40A, the self-cleavage was determined as 0.03.

For the variant U9C G40C, the self-cleavage was 0.03.

For the variant U9C G40U, the self-cleavage was 0.03.

As for C10A G40U, the self-cleavage was found to be 0.03.

C10A G40C: the self-cleavage stood at 0.02.

Take C10A G40A: the self-cleavage was determined as 0.02.

On to U9C A24U, for which the self-cleavage is 0.05.

Consider U9C A24C, for which the self-cleavage was found to be 0.02.

In the case of U9C A24G, the self-cleavage was found to be 0.07.

Turning to U9C G44A, the self-cleavage amounted to 0.04.

On to U9C G44C, for which the self-cleavage is 0.02.

In the case of U9C G44U, the self-cleavage stood at 0.02.

Take C10A U28G: the self-cleavage is 0.06.

For C10A U28C, the self-cleavage was determined as 0.07.

As to C10A U28A, the self-cleavage turned out to be 0.04.

Take C10A G27U: the self-cleavage was 0.06.

Regarding C10A G27C, the self-cleavage came out at 0.04.

Regarding C10A G27A, the self-cleavage came out at 0.06.

Take C10A U20A: the self-cleavage was found to be 0.05.

Turning to C10A U20G, the self-cleavage worked out at 0.03.

Consider C10A U20C, for which the self-cleavage is 0.06.

With U9G U34A, the self-cleavage came to 0.04.

With U9G U34G, the self-cleavage was 0.05.

As for U9G U34C, the self-cleavage was determined as 0.06.

As for U9G G35U, the self-cleavage turned out to be 0.07.

For U9G G35C, the self-cleavage turned out to be 0.03.

With U9G G35A, the self-cleavage amounted to 0.11.

On to C10A A24U, for which the self-cleavage stood at 0.05.

Consider C10A A24G, for which the self-cleavage is 0.06.

With C10A A24C, the self-cleavage came out at 0.03.

Take U9G G22U: the self-cleavage worked out at 0.19.

On to U9G G22A, for which the self-cleavage was 0.21.

U9G G22C: the self-cleavage is 0.1.

As to U9C C45A, the self-cleavage turned out to be 0.05.

On to U9C C45G, for which the self-cleavage worked out at 0.02.

In the case of U9C C45U, the self-cleavage was found to be 0.03.

U9G G17C: the self-cleavage turned out to be 0.1.

Consider U9G G17U, for which the self-cleavage worked out at 0.08.

Consider U9G G17A, for which the self-cleavage worked out at 0.12.

As to C10A G30U, the self-cleavage was found to be 0.09.

Take C10A G30C: the self-cleavage was 0.08.

As for C10A G30A, the self-cleavage was found to be 0.1.

On to C10A C23G, for which the self-cleavage was 0.07.

In the case of C10A C23U, the self-cleavage was 0.06.

For the variant C10A C23A, the self-cleavage was 0.06.

With U9G A12G, the self-cleavage is 0.02.

Regarding U9G A12U, the self-cleavage was 0.14.

As to U9G A12C, the self-cleavage stood at 0.02.

Regarding U9G G36C, the self-cleavage came out at 0.04.

On to U9G G36A, for which the self-cleavage turned out to be 0.61.

U9G G36U: the self-cleavage is 0.12.

As to U9G U28G, the self-cleavage worked out at 0.06.

In the case of U9G U28C, the self-cleavage turned out to be 0.04.

As to U9G U28A, the self-cleavage was 0.11.

Turning to U9G C15A, the self-cleavage is 0.1.

In the case of U9G C15G, the self-cleavage came out at 0.43.

Take U9G C15U: the self-cleavage amounted to 0.17.

For U9G, the self-cleavage came to 0.15.

In the case of C10A G17U, the self-cleavage was found to be 0.05.

On to C10A G17A, for which the self-cleavage was 0.04.

C10A G17C: the self-cleavage was 0.1.

On to U9C A11U, for which the self-cleavage was 0.03.

In the case of U9C A11G, the self-cleavage was 0.02.

For the variant U9G U43A, the self-cleavage worked out at 0.07.

For the variant U9G U43C, the self-cleavage came out at 0.04.

Regarding U9C A14C, the self-cleavage was found to be 0.02.

Turning to U9C A14U, the self-cleavage came out at 0.07.

Regarding U9C A14G, the self-cleavage amounted to 0.03.

For the variant U9C G36A, the self-cleavage stood at 0.09.

U9C G36C: the self-cleavage is 0.03.

As to U9C G36U, the self-cleavage was found to be 0.03.

As for C10A, the self-cleavage worked out at 0.07.

In the case of C10G, the self-cleavage came to 0.11.
